Data reported in patent US20120058906A1.

Legend:
[1] = target: rHuman CD44/Fc Chimera, CF (R&D Systems Cat#3660-CD) (human) (UniProt P16070); test: ECL (MSD multi-spot), Fab […]; blank 162
[2] = target: rHuman EGF R/Fc Chimera, CF (R&D Systems Cat#344-ER) (human) (UniProt P00533); test: ECL (MSD multi-spot), Fab […]; blank 162
[3] = target: rHuman ErbB2/Fc Chimera, CF (R&D Systems Cat#1129-ER) (human) (UniProt P04626); test: ECL (MSD multi-spot), Fab […]; blank 162
[4] = target: rHuman Erythropoietin R/Fc Chimera, CF (R&D Systems Cat#963-ER) (human) (UniProt P19235); test: ECL (MSD multi-spot), Fab […]; blank 162
Chain of rHuman Erythropoietin R/Fc Chimera, CF (R&D Systems Cat#963-ER) (human) (P19235 25-250, change not shown): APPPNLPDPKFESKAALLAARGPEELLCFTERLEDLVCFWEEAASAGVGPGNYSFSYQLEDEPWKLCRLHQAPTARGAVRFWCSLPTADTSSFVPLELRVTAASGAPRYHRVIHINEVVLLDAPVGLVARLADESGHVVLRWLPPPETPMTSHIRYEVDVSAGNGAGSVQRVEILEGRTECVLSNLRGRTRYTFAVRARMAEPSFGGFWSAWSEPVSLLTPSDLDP

[5] = target: rHuman HGF R/c-MET/Fc Chimera, CF (R&D Systems Cat#358-MT/CF) (human) (UniProt P08581); test: ECL (MSD multi-spot), Fab […]; blank 162
[6] = target: rHuman IGF-1 sR (IGF-1 sR), CF (R&D Systems Cat#391-GR) (human) (UniProt P08069); test: ECL (MSD multi-spot), Fab […]; blank 162
[7] = target: rHuman Notch-1/Fc Chimera, CF (R&D Systems Cat#3647-TK) (human) (UniProt P46531); test: ECL (MSD multi-spot), Fab […]; blank 162
[8] = target: rHuman P-Cadherin/Fc Chimera, CF (R&D Systems Cat#861-PC) (human) (UniProt P22223); test: ECL (MSD multi-spot), Fab […]; blank 162
[9] = target: rHuman Notch-1/Fc Chimera, CF (R&D Systems Cat#3647-TK) (human) (UniProt P46531); test: ECL (MSD multi-spot), Fab 85.0 nM; blank 292
[10] = target: rHuman P-Cadherin/Fc Chimera, CF (R&D Systems Cat#861-PC) (human) (UniProt P22223); test: ECL (MSD multi-spot), Fab 85.0 nM; blank 292

- ECL signal [1]: 522 ECL signal
- ECL signal [2]: 528 ECL signal
- ECL signal [3]: 866 ECL signal
- ECL signal [4]: 494 ECL signal
- ECL signal [5]: 607 ECL signal
- ECL signal [6]: 646 ECL signal
- ECL signal [7]: 649 ECL signal
- ECL signal [8]: 421 ECL signal
- ECL signal [9]: 780 ECL signal
- ECL signal [10]: 709 ECL signal
Substance: Fab VH4-34_IGHD7-27*01_IGHJ4*01 & V4-6_IGLJ4*01
